These results are taken from paper PMC10754689.

Holding throughout (experiment): TPM
For data set [1], the system named is φC31 Int wt (Streptomyces coelicolor phage φC31). As to conditions: TPM (LI Int): 20 mM Tris-HCl pH 8.0, 150 mM KCl, 5% glycerol, 5 mM MgCl2, 5 mM DTT, 2 mg/mL BSA, 22°C, 30 min, φC31 Int at 20 nM, its buffer not in the ….
The subject of data set [2] is φC31 Int ΔCC (Streptomyces coelicolor phage φC31). As to conditions: TPM (LI Int): 20 mM Tris-HCl pH 8.0, 150 mM KCl, 5% glycerol, 5 mM MgCl2, 5 mM DTT, 2 mg/mL BSA, 22°C, 30 min, φC31 Int at 20 nM, its buffer not in the ….
Data set [3] has as its system LI Int ΔCC (Listeria innocua prophage (phage LI)). To be noted: 200 or 400 nM Int, 5 mM Mg2+, TPM (LI Int): 20 mM Tris-HCl pH 8.0, 150 mM KCl, 5% glycerol, 5 mM MgCl2, 5 mM DTT, 2 mg/mL BSA, 22°C, 30 min, φC31 Int at 20 nM, its buffer not in the ….
Data set [4] relates to LI Int S10A (Listeria innocua prophage (phage LI)). To be noted: 5 mM Mg2+, TPM (LI Int): 20 mM Tris-HCl pH 8.0, 150 mM KCl, 5% glycerol, 5 mM MgCl2, 5 mM DTT, 2 mg/mL BSA, 22°C, 30 min, φC31 Int at 20 nM, its buffer not in the ….
Data set [5] deals with LI Int K362A (Listeria innocua prophage (phage LI)). To be noted: 200 or 400 nM Int, 5 mM Mg2+, TPM (LI Int): 20 mM Tris-HCl pH 8.0, 150 mM KCl, 5% glycerol, 5 mM MgCl2, 5 mM DTT, 2 mg/mL BSA, 22°C, 30 min, φC31 Int at 20 nM, its buffer not in the ….
The subject of data set [6] is LI Int wt (Listeria innocua prophage (phage LI)). As to conditions: 5 mM Mg2+, TPM (LI Int): 20 mM Tris-HCl pH 8.0, 150 mM KCl, 5% glycerol, 5 mM MgCl2, 5 mM DTT, 2 mg/mL BSA, 22°C, 30 min, φC31 Int at 20 nM, its buffer not in the ….

φC31 attB-attP head-to-tail 1303 bp: the binding signal in data set [1] (20 nM Int) turned out to be 80.4 % DNA bound; in data set [2] (20 nM Int), 30.6 % DNA bound.
For the substance LI attB-attP head-to-tail 1303 bp, the binding signal in data set [3] turned out to be 17.8 % DNA bound; in data set [4] (100 nM Int), 76.4 % DNA bound; in data set [5], 54.9 % DNA bound; in data set [6] (100 nM Int) it was 81.1 % DNA bound.
Regarding LI attL-attR head-to-tail 1303 bp, the binding signal in data set [3] (no RDF) amounted to 16.1 % DNA bound; in data set [4] (200 nM Int, no RDF), 51.7 % DNA bound; in data set [5] (no RDF), 20.5 % DNA bound; in data set [6] (200 nM Int, no RDF), 48.6 % DNA bound.
Regarding φC31 attL-attR head-to-tail 1303 bp, the binding signal was found to be 19.9 % DNA bound in data set [1] and 21 % DNA bound in data set [2].
